Measured values from US20180208655A1 (VENTANA MEDICAL SYSTEMS, published 2018).

Biological target: T1, human GPNMB (transmembrane glycoprotein NMB) (human, UniProt Q14956 23-572)
T1 construct: Endogenous GPNMB in human FFPE tissues and cells (IHC), A375 cell lysate (Western blot) and A375 cells (flow cytometry)
T1 sequence: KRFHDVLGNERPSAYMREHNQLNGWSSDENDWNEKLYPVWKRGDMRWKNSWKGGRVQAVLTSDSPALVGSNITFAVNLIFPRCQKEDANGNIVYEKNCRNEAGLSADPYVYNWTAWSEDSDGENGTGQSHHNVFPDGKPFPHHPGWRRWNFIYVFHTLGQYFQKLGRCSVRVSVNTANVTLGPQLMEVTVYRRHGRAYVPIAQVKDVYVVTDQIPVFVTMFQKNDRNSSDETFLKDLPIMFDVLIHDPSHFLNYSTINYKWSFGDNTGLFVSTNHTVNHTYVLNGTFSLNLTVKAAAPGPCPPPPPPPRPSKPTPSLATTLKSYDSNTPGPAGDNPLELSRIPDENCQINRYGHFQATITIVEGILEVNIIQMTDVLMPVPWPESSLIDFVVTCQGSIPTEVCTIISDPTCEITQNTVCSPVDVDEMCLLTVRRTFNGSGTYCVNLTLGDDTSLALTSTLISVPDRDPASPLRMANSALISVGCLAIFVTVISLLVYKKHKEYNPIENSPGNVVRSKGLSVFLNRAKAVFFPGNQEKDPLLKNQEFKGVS
Assay: IHC screening of recombinantly expressed clones (after ELISA screening on the GPNMB antigen)

binding result: binds
B1: rabbit anti-human GPNMB monoclonal antibody (SP299) (antibody, V domains shown)
VH: QSLEESGGGLVKPGGTLTLICTVSGIDLSTYGVIWVRQAPREGLEWIGFITRSGTTDYAAWANGRFTISKTSTTVDLKIASLTAADTATYFCARGGYRFNLWGHGTLVTVSS
VL: DPVMTQTPASVSEPVGGTVTIKCQASQSIYSYLAWYQQKPGQPPKLLIYKASSLESGVPSRLSGSGSGTEFTLTISDLECADAATYYCQGGYISTTVSFGYGFGGGTEVVVK
notes: also called anti-GPNMB antibody SP299; Anti-GPNMB monoclonal antibody (SP299)
